In patent US9416162B2, “Peptides having reduced toxicity that stimulate cholesterol efflux” (The Regents of the University of California, priority 2013, dated 2016):

System: Wistar rats
Assay: High-dose IV toxicity of ATI-5261 in rats (plasma ALT, AST, TG, unesterified cholesterol)
Type: in vivo, rat
Experimental: Peptides or peptidomimetics of the invention can be evaluated for toxicity using known assays. Examples of such assays are illustrated in the Examples section. Toxicity is typically assayed in a rat, rabbit, mouse, monkey or dog model. In an illustrative assay, such as that described in Example 1, a peptide is administered intravenously using a rabbit or rat model at doses of 3, 30, and 300 mg/kg and vehicle alone is also administered at 48 hour intervals for a total of four injections. Safety chemistry panels including plasma alanine aminotransferase (ALT), aspartate amino transferase (AST), and creatine kinase (CK) can then be determined in the blood. The presence of elevated levels of these enzymes in the blood compared to control normal values is indicative of toxicity. A peptide of the invention is typically considered to be non-toxic or to have little toxicity, when the results using the highest dose, 300 mg/kg in this illustrative assay, are equivalent (fall within the standard deviation) of the values measured for the control animals that received vehicle alone, or are no more than 2 or 3 times background obtained with vehicle alone. In some embodiments, a toxicity assay is performed where the toxicity of a peptide of the invention is compared to that to ATI-5261. […]
Cytotoxicity of an HDL mimetic peptide ATI-5261 at high doses was evaluated in rats and rabbits (FIG. 1). […]

Substance: ATI-5261: HDL mimetic peptide, parent peptide; triglyceride elevating and muscle toxic peptide used as positive control (EVRSKLEEWFAAFREFAEEFLARLKS) [reference compound]
- plasma triglycerides and cholesterol (male Wistar rats, IV 3, 30, 300 mg/kg): increased plasma triglycerides and cholesterol
- cytotoxic response (plasma ALT and AST) (male chow-fed Wistar rats, IV 3, 30 and 300 mg/kg at 48 h intervals, 4 injections): induced a cytotoxic response
